Results on six molecules are retold here after patent US20250339501A1, “COMPOSITIONS AND METHODS FOR TREATING METABOLIC DISEASE” (The Regents of the University of California, priority 2021, published 2025).

In one test the test system is C2C12 myotubes. Briefly: Dj1 release from muscle cells into culture medium. In kind it is cell-based, mouse. The conditions noted are these: for protein level of Dj1 in the media: C2C12 myotubes with or without CCCP, Tg; for muscle cell release of Dj1: in vitro (C2C12 myotubes) and ex vivo muscle. The protocol:
Seeded cells were cultured in 6-well plates for 24 hours prior to transfection. Transfections were performed using Lipofectamine 2000 and PLUS reagent according to manufacturer instructions (Invitrogen, Carlsbad, CA). Human HepG2 cells were cultured in DMEM/low media containing 10% fetal bovine serum with penicillin/streptomycin. Mouse AML12 cells were maintained in DMEM/F12, ITS supplement (Gibco, USA), 40 ng/ml dexamethasone, and 10% fetal bovine serum with penicillin/streptomycin.
An adenovirus encoding mouse Dj1 was generated using the ViraPower Adenoviral Expression System (Invitrogen) according to manufacturer instructions. […] Entry clones were obtained by recombination of the purified DNA fragment with the pDONR221 vector using Gateway BP clonase II. Mouse Dj1 insert was transferred from the entry clones into the pAd/CMV/V5-DEST vector (Invitrogen) using the Gateway LR Clonase II enzyme mix. The recombinant adenoviral purified plasmid was used to generate adenoviral particles according to the manufacturer's instructions (Invitrogen). Adenoviral titer was determined using the AdenoX Rapid Titer Kit (Clontech).
(§1) Mouse tissue and cell samples were pulverized in liquid nitrogen and homogenized in RIPA lysis buffer containing complete EDTA-Free protease (Roche) and Phosphatase Inhibitor Cocktail 2 (Sigma-Aldrich, St. Louis, MO). All lysates were centrifuged, clarified, and resolved by SDS-PAGE. […] Densitometric analyses were performed using BioRad Quantity One image software (Bio-Rad, Hercules, CA).
(§2) Mouse serum Dj1 and CK were measured by mouse Park7/DJ-1 DuoSet ELISA (DY8136, R&D systems) and mouse CKMB/Creatine Kinase MB ELISA Kit (LS-F5745, LSBio) respectively. Mouse Serum AST and ALT were measured by AST activity assay kit (Sigma, MAK055) and ALT activity assay kit (Sigma, MAK052) respectively.
Strenuous exercise increases the endoplasmic reticulum (ER) stress, which at an excessive level can lead to muscle damage (12). […] To determine the mechanisms that drive skeletal muscle releases of Dj1, ER stress markers were examined in skeletal muscles of the three different mouse models described above. […] To further validate muscle cells release of Dj1, in vitro studies were assessed.
(§3) Extracellular vesicles are cell-derived membranous structures including exosomes and microvesicles bodies, which are enriched with proteins, lipids, DNA, and RNA (14). To examine whether Dj1 is released through the extracellular vesicle system, Dj1 levels were determined in the culture media of C2C12 myotubes that were treated with or without CCCP, Tg, exosome generation inhibitor GW4869, or exocytosis inhibitor Exo1. […] To visualize the release of Dj1 from muscle cells, time-lapse imaging was performed on C2C12 myocytes transfected with Dj1-GFP. […] To further determine which types of extracellular vesicles were enriched with Dj1, microvesicle bodies (MVBs) and exosomes from C2C12 culture media and CTX-treated mouse plasma were separated by differential centrifugation.

The next test deals with C2C12 myocytes. Description: Time-lapse imaging of Dj1-GFP transfected C2C12 myocytes. In kind it is cell-based, mouse. On the procedure:
Before image analysis, raw .czi files were automatically processed into deconvoluted Airyscan images using Zen software. Time-lapse images were acquired at approximately 1 frame/second.
as §3

The test system of the next test is cleaved caspase 3. The settings on record: C2C12 myocytes. On the procedure:
as §1

A further test relates to C57BL/6J mice. Description: Plasma Dj1 after intramuscular CTX injection. The class given is in vivo, mouse. The settings on record: 2 days post intramuscular administration. On the procedure: as §2
Cardiotoxin (CTX) induces skeletal muscle injury and regeneration. To further validate the effect of muscle injury on circulating Dj1, C57BL/6J mice were injected intramuscularly with CTX, and plasma Dj1 levels were measured 2 days post-administration.

A further test deals with NASH diet-fed mice. Briefly: tDj1 administration in NASH diet-fed mice.
The subject of another test is p38. Description: p38 phosphorylation immunoblot in liver of HFD-fed mice. The class given is in vivo, mouse. An excerpt: (§4) As described above, Dj1 administration stimulates AMPK phosphorylation in the liver cells. However, elevated AMPK phosphorylation in vivo was not observed (data not shown). Numerous studies have reported that the c-Jun N terminal kinase (JNK) is critical to the development of steatosis and chronic liver injury in NAFLD (22-25). […] However, not all MAPK pathways were activated. For example, phosphorylation of p42 was not altered by tDj1 treatment (FIG. 6O). Both rDj1 and tDj1 suppressed TNFα and Anisomycin-induced JNK (p54 and p46) phosphorylation in human HepG2 and mouse AML12 liver cells, respectively (FIGS. 6C-6D).
On the technique in general: A western blot detects proteins with antibodies after separation by electrophoresis.

In the next test the test system is p42. Description: p42 phosphorylation immunoblot in liver of HFD-fed mice. In kind it is in vivo, mouse.
Source text: as §4

Test [1] deals with JNK. Description: JNK phosphorylation immunoblot in liver of HFD-fed mice. The class given is in vivo, mouse.
Source text: as §4

The test system of a further test is AML12 cells. Briefly: TG and NEFA content in palmitate acid-treated AML12 cells. In kind it is cell-based, mouse. On the procedure: Mouse myoblast cells (C2C12) were maintained in high glucose DMEM/high, 10% fetal bovine serum with penicillin/streptomycin. pRK5-Dj1-HA plasmid was purchased from Addgene (#29396). Seeded cells were cultured in 6-well plates for 24 hours prior to transfection. Transfections were performed using Lipofectamine 2000 and PLUS reagent according to manufacturer instructions (Invitrogen, Carlsbad, CA). Human HepG2 cells were cultured in DMEM/low media containing 10% fetal bovine serum with penicillin/streptomycin. Mouse AML12 cells were maintained in DMEM/F12, ITS supplement (Gibco, USA), 40 ng/ml dexamethasone, and 10% fetal bovine serum with penicillin/streptomycin. For in vitro experiments, HepG2 cells were treated with or without recombinant human Dj1 protein (Novus, NBC1-18334) in serum-free media containing 25 mM glucose, 200 μM palmitic acid, and 0.25% bovine serum albumin for an indicated time.
(§5) Dj1 is a highly conserved protein that is ubiquitously expressed in most mammalian tissues. It belongs to the Dj1/ThiJ/PfpI family chaperones, and its expression is induced by oxidative stress (20,21). To determine whether the PfpI domain of Dj1 exerts a similar role as the full-length Dj1 protein (rDj1) in liver cells, truncated Dj1 (tDj1) comprising of only the PfpI domain was purified (FIG. 5O). HFD-fed mice were intravenous injected with rDj1 or tDj1 every other day for 14 days.

The next test concerns HFD-fed mice. Description: rDj1 or tDj1 intravenous every other day for 14 days in HFD-fed mice. In kind it is in vivo, mouse. The protocol:
C57BL/10cSn-Dmd^mdx/J (001801, mdx) and C57BL/10ScSnJ (000476, WT) mice were ordered directly from The Jackson Laboratory. Different ages of mdx and WT mice were obtained. Animals were weaned 21 days after birth and had free access to food and water and were housed on 12 h light-dark cycle. C57BL/6J males were introduced to a normal diet (NC, Research Diets D15100601) or high-fat diet (HFD, Research Diets D12331), and maintained on a diet for the indicated time. The HFD diet derives 58% of its kilocalories (kcal) from fat (soybean and coconut oil), 25.5% from carbohydrates (sucrose and maltodextrin), and 16.4% from protein (casein). NASH model mice were fed for up to 28 weeks with the NASH diet (Envigo, TD.120528) and 42% fructose (Sigma, F0127) in the water (1,2). The NASH diet is composed of 405.36 g/Kg sucrose and 12.5 g/Kg cholesterol. Recombinant mouse Dj1 protein (Novus, NBP2-59523) or truncated mouse Dj1 (tDj1, GenScript) protein was intravenously injected every day for 5 days or every other day for 2 weeks. Skeletal muscle-specific Park7 knockout mice were generated by crossing Park7 flox mice with Myl1-cre mice (JAX, #024713). Mice were raised in microisolator cages with a 12 h: 12 h light: dark cycle. All procedures were performed in accordance with the Guide for Care and Use of Laboratory Animals of the National Institutes of Health, and were approved by the Animal Subjects Committee of the University of California, Los Angeles.
Cryosections (10-μm thick transverse sections of frozen muscle cut in a cryostat (Leica) at −20° C.) were subjected to hematoxylin & eosin (H&E) staining (10, 54). Liver tissues were fixed in phosphate-buffered 10% formalin and embedded in paraffin wax. Sections were cut and stained with H&E.
as §2
Plasma and liver NEFA, Cholesterol, and Triglyceride were analyzed by their respective kits (FUJIFILM Wako Diagnostics)
About 80 mg of liver samples were homogenized and sonicated in PBS (pH 7.4) for lipid extraction. An internal standard mixture (ISTD) and CHCl3:methanol (2:1) were added to the samples before being vortexed, mixed, sonicated, and centrifuged. The supernatant containing the lipid was removed and dried, the lipids were resuspended in ethanol and then sonicated.
as §5

The subject of test [2] is JNK. Description: Anisomycin-induced JNK phosphorylation in AML12 cells. In kind it is cell-based. The settings on record: mouse AML12 liver cells.
Source text: as §4

The test system of the next test is ASK1. Briefly: ASK1 phosphorylation immunoblot, in vitro and in liver of HFD-fed mice. Further details: species or system mouse. The settings on record: in vitro and in vivo; liver of HFD-fed WT mice. An excerpt:
A wide variety of mechanisms activate the JNK pathway. […] Moreover, ASK1 is activated by various stresses, including oxidative stress, ER stress, calcium overload, and receptor-mediated inflammatory signals such as TNFα and lipopolysaccharide (LPS) (26,27). rDj1 administration suppressed both baseline and TNFα-induced ROS levels in HepG2 cells, which may contribute to reducing liver inflammation (FIG. 6F).

Entries after “also recorded” stand apart in the source; their conditions may differ. Like-named read-outs stand apart in the source and are kept apart here.

Method for NASH diet-fed mice: Animals were weaned 21 days after birth and had free access to food and water and were housed on 12 h light-dark cycle. C57BL/6J males were introduced to a normal diet (NC, Research Diets D15100601) or high-fat diet (HFD, Research Diets D12331), and maintained on a diet for the indicated time. […] NASH model mice were fed for up to 28 weeks with the NASH diet (Envigo, TD.120528) and 42% fructose (Sigma, F0127) in the water (1,2). […] Mice were raised in microisolator cages with a 12 h: 12 h light: dark cycle. All procedures were performed in accordance with the Guide for Care and Use of Laboratory Animals of the National Institutes of Health, and were approved by the Animal Subjects Committee of the University of California, Los Angeles.

Take `O=C(/C=C/c1ccc(/C=C/C(=O)Nc2ccc(C3=NCCN3)cc2)cc1)Nc1ccc(C2=NCCN2)cc1` [GW4869]: the “protein level of Dj1 in the media” value in the test with C2C12 myotubes is reported as “significantly reduced”.
Take `C/C=C(/C)C(=O)O[C@H]1C(C)=C2[C@H]([C@@H]1OC(=O)CCCCCCC)[C@@](C)(OC(C)=O)C[C@H](OC(=O)CCC)[C@@]1(O)[C@H]2OC(=O)[C@@]1(C)O` [Thapsigargin]: the “budding of vesicles from cells” value in the test on C2C12 myocytes (Dj1-GFP transfected C2C12 myocytes, time-lapse imaging) is on record as “Robust budding of vesicles”. In addition, the “muscle cell release of Dj1” value in the test on C2C12 myotubes is “release Dj1”.
On to “carbonyl cyanide m-chlorophenyl hydrazine [CCCP]”, for which the “budding of vesicles from cells” value in the test with C2C12 myocytes is reported as “Robust budding of vesicles”. The “Dj1 levels in the culture medium” value in the test on C2C12 myotubes (C2C12 myocytes / myotubes) is given as “elevated”. Also, the “HA-Dj1 levels in the media” value with C2C12 myotubes (C2C12 myocytes transfected with HA-tagged Dj1) is “elevated”. Further, the “muscle cell release of Dj1” value in the test with C2C12 myotubes is listed as “release Dj1”. Further, the “protein level of cleaved caspase 3” value in the test with cleaved caspase 3 was “did not alter”.
Cardiotoxin [CTX]: in the test with C57BL/6J mice, the “Dj1 in the plasma” value is listed as “increase”.
Regarding `COC(=O)c1ccccc1NC(=O)c1ccc(F)cc1` [Exo1], the “protein level of Dj1 in the media” value with C2C12 myotubes is reported as “significantly reduced”.

B1: tDj1: truncated mouse Dj1 comprising only the PfpI domain, residues 32-173 per b12, SEQ ID NO: 3 (GenScript) (protein, listed as Mus musculus)
chain: KVTVAGLAGKDPVQCSRDVMICPDTSLEDAKTQGPYDVVVLPGGNLGAQNLSESPMVKEILKEQESRKGLIAAICAGPTALLAHEVGFGCKVTTHPLAKDKMMNGSHYSYSESRVEKDGLILTSRGPGTSFEFALAIVE
B1: in the test with NASH diet-fed mice (NASH diet-fed mice), the “TG levels in the liver” value is given as “did not considerably reduce”, the fibrosis scores result was “significantly reduced”, the “hepatic apoptosis (TUNEL assay)” value is “suppressed” and the “liver ALT activity” value is recorded as “robustly reduced”. In the test with NASH diet-fed mice (NASH diet-fed mice), the “total cholesterol level in the liver” value is listed as “significantly suppressed”. In addition, in the test with NASH diet-fed mice (liver of NASH diet-fed mice), the inflammatory gene expression entry is “significantly reduced”; the “liver fibrosis gene expression” value is recorded as “significantly reduced”; the “protein levels of apoptosis markers (cleaved caspase 3, cleaved caspase 8, cleaved caspase 9, cleaved PARP)” value was “decreased”. In the test with NASH diet-fed mice (mice on NASH diet for 28 weeks), the body weight entry is listed as “significantly reduced”, the glucose tolerance result is reported as “improved” and the insulin tolerance entry was “improved”. In addition, in the test on p38, the p38 phosphorylation entry is “decreased”. In the test on p42, the “phosphorylation of p42” value is on record as “not altered”. The “JNK (p46 subunit) phosphorylation” value in the test on JNK [1] was “significantly reduced”. Also, the TG levels entry in the test with AML12 cells is on record as “reduced”. In addition, in the test with HFD-fed mice, the “level of TG in the liver” value was “significantly reduced”; the “liver histology, lipid accumulation” value was “less lipid accumulation”; the “plasma ALT levels” value is “reducing”; the “plasma AST levels” value was “reducing”. For the same molecule, the “Anisomycin-induced JNK (p54 and p46) phosphorylation” value with JNK [2] was “suppressed; also recorded: inhibits”. Moreover, the “phosphorylation of apoptosis signal-regulating kinase 1 (ASK1)” value in the test with ASK1 is “reduced; also recorded: inhibits”.
